Assay results taken from article PMC7367873, “Dissecting the sequence determinants for dephosphorylation by the catalytic subunits of phosphatases PP1 and PP2A” (Nature Communications, 2020).

B1: PKP3 (protein, UniProt Q9Y446 1-797, looked up)
Plakophilin-3: MQDGNFLLSALQPEAGVCSLALPSDLQLDRRGAEGPEAERLRAARVQEQVRARLLQLGQQPRHNGAAEPEPEAETARGTSRGQYHTLQAGFSSRSQGLSGDKTSGFRPIAKPAYSPASWSSRSAVDLSCSRRLSSAHNGGSAFGAAGYGGAQPTPPMPTRPVSFHERGGVGSRADYDTLSLRSLRLGPGGLDDRYSLVSEQLEPAATSTYRAFAYERQASSSSSRAGGLDWPEATEVSPSRTIRAPAVRTLQRFQSSHRSRGVGGAVPGAVLEPVARAPSVRSLSLSLADSGHLPDVHGFNSYGSHRTLQRLSSGFDDIDLPSAVKYLMASDPNLQVLGAAYIQHKCYSDAAAKKQARSLQAVPRLVKLFNHANQEVQRHATGAMRNLIYDNADNKLALVEENGIFELLRTLREQDDELRKNVTGILWNLSSSDHLKDRLARDTLEQLTDLVLSPLSGAGGPPLIQQNASEAEIFYNATGFLRNLSSASQATRQKMRECHGLVDALVTSINHALDAGKCEDKSVENAVCVLRNLSYRLYDEMPPSALQRLEGRGRRDLAGAPPGEVVGCFTPQSRRLRELPLAADALTFAEVSKDPKGLEWLWSPQIVGLYNRLLQRCELNRHTTEAAAGALQNITAGDRRWAGVLSRLALEQERILNPLLDRVRTADHHQLRSLTGLIRNLSRNARNKDEMSTKVVSHLIEKLPGSVGEKSPPAEVLVNIIAVLNNLVVASPIAARDLLYFDGLRKLIFIKKKRDSPDSEKSSRAASSLLANLWQYNKLHRDFRAKGYRKEDFLGP
B2: CD55 (protein, UniProt P08174 35-353, looked up)
Complement decay-accelerating …: DCGLPPDVPNAQPALEGRTSFPEDTVITYKCEESFVKIPGEKDSVICLKGSQWSDIEEFCNRSCEVPTRLNSASLKQPYITQNYFPVGTVVEYECRPGYRREPSLSPKLTCLQNLKWSTAVEFCKKKSCPNPGEIRNGQIDVPGGILFGATISFSCNTGYKLFGSTSSFCLISGSSVQWSDPLPECREIYCPAPPQIDNGIIQGERDHYGYRQSVTYACNKGFTMIGEHSIYCTVNNDEGEWSGPPPECRGKSLTSKVPPTVQKPTTVNVPTTEVSPTSQKTTTKTTTPNAQATRSTPVSRTTKHFHETTPNKGSGTTS
B3: ATP2A2 (protein, UniProt P16615 1-1042, looked up)
Sarcoplasmic/endoplasmic …: MENAHTKTVEEVLGHFGVNESTGLSLEQVKKLKERWGSNELPAEEGKTLLELVIEQFEDLLVRILLLAACISFVLAWFEEGEETITAFVEPFVILLILVANAIVGVWQERNAENAIEALKEYEPEMGKVYRQDRKSVQRIKAKDIVPGDIVEIAVGDKVPADIRLTSIKSTTLRVDQSILTGESVSVIKHTDPVPDPRAVNQDKKNMLFSGTNIAAGKAMGVVVATGVNTEIGKIRDEMVATEQERTPLQQKLDEFGEQLSKVISLICIAVWIINIGHFNDPVHGGSWIRGAIYYFKIAVALAVAAIPEGLPAVITTCLALGTRRMAKKNAIVRSLPSVETLGCTSVICSDKTGTLTTNQMSVCRMFILDRVEGDTCSLNEFTITGSTYAPIGEVHKDDKPVNCHQYDGLVELATICALCNDSALDYNEAKGVYEKVGEATETALTCLVEKMNVFDTELKGLSKIERANACNSVIKQLMKKEFTLEFSRDRKSMSVYCTPNKPSRTSMSKMFVKGAPEGVIDRCTHIRVGSTKVPMTSGVKQKIMSVIREWGSGSDTLRCLALATHDNPLRREEMHLEDSANFIKYETNLTFVGCVGMLDPPRIEVASSVKLCRQAGIRVIMITGDNKGTAVAICRRIGIFGQDEDVTSKAFTGREFDELNPSAQRDACLNARCFARVEPSHKSKIVEFLQSFDEITAMTGDGVNDAPALKKAEIGIAMGSGTAVAKTASEMVLADDNFSTIVAAVEEGRAIYNNMKQFIRYLISSNVGEVVCIFLTAALGFPEALIPVQLLWVNLVTDGLPATALGFNPPDLDIMNKPPRNPKEPLISGWLFFRYLAIGCYVGAATVGAAAWWFIAADGGPRVSFYQLSHFLQCKEDNPDFEGVDCAIFESPYPMTMALSVLVTIEMCNALNSLSENQSLLRMPPWENIWLVGSICLSMSLHFLILYVEPLPLIFQITPLNVTQWLMVLKISLPVILMDETLKFVARNYLEPGKECVQPATKSCSFSACTDGISWPFVLLIMPLVIWVYSTDTNFSDMFWS
B4: GNL3 (protein, UniProt Q9BVP2 1-549, looked up)
Guanine nucleotide-binding …: MKRPKLKKASKRMTCHKRYKIQKKVREHHRKLRKEAKKRGHKKPRKDPGVPNSAPFKEALLREAELRKQRLEELKQQQKLDRQKELEKKRKLETNPDIKPSNVEPMEKEFGLCKTENKAKSGKQNSKKLYCQELKKVIEASDVVLEVLDARDPLGCRCPQVEEAIVQSGQKKLVLILNKSDLVPKENLESWLNYLKKELPTVVFRASTKPKDKGKITKRVKAKKNAAPFRSEVCFGKEGLWKLLGGFQETCSKAIRVGVIGFPNVGKSSIINSLKQEQMCNVGVSMGLTRSMQVVPLDKQITIIDSPSFIVSPLNSSSALALRSPASIEVVKPMEAASAILSQADARQVVLKYTVPGYRNSLEFFTVLAQRRGMHQKGGIPNVEGAAKLLWSEWTGASLAYYCHPPTSWTPPPYFNESIVVDMKSGFNLEELEKNNAQSIRAIKGPHLANSILFQSSGLTNGIIEEKDIHEELPKRKERKQEEREDDKDSDQETVDEEVDENSSGMFAAEETGEALSEETTAGEQSTRSFILDKIIEEDDAYDFSTDYV
B5: CEP131 (protein, UniProt Q9UPN4 1-1083, looked up)
Centrosomal protein of 131 kDa: MKGTRAIGSVPERSPAGVDLSLTGLPPPVSRRPGSAATTKPIVRSVSVVTGSEQKRKVLEATGPGGSQAINNLRRSNSTTQVSQPRSGSPRPTEPTDFLMLFEGSPSGKKRPASLSTAPSEKGATWNVLDDQPRGFTLPSNARSSSALDSPAGPRRKECTVALAPNFTANNRSNKGAVGNCVTTMVHNRYTPSERAPPLKSSNQTAPSLNNIIKAATCEGSESSGFGKLPKNVSSATHSARNNTGGSTGLPRRKEVTEEEAERFIHQVNQATVTIQRWYRHQVQRRGAGAARLEHLLQAKREEQRQRSGEGTLLDLHQQKEAARRKAREEKARQARRAAIQELQQKRALRAQKASTAERGPPENPRETRVPGMRQPAQELSPTPGGTAHQALKANNTGGGLPAAGPGDRCLPTSDSSPEPQQPPEDRTQDVLAQDAAGDNLEMMAPSRGSAKSRGPLEELLHTLQLLEKEPDVLPRPRTHHRGRYAWASEVTTEDDASSLTADNLEKFGKLSAFPEPPEDGTLLSEAKLQSIMSFLDEMEKSGQDQLDSQQEGWVPEAGPGPLELGSEVSTSVMRLKLEVEEKKQAMLLLQRALAQQRDLTARRVKETEKALSRQLQRQREHYEATIQRHLAFIDQLIEDKKVLSEKCEAVVAELKQEDQRCTERVAQAQAQHELEIKKLKELMSATEKARREKWISEKTKKIKEVTVRGLEPEIQKLIARHKQEVRRLKSLHEAELLQSDERASQRCLRQAEELREQLEREKEALGQQERERARQRFQQHLEQEQWALQQQRQRLYSEVAEERERLGQQAARQRAELEELRQQLEESSSALTRALRAEFEKGREEQERRHQMELNTLKQQLELERQAWEAGRTRKEEAWLLNREQELREEIRKGRDKEIELVIHRLEADMALAKEESEKAAESRIKRLRDKYEAELSELEQSERKLQERCSELKGQLGEAEGENLRLQGLVRQKERALEDAQAVNEQLSSERSNLAQVIRQEFEDRLAASEEETRQAKAELATLQARQQLELEEVHRRVKTALARKEEAVSSLRTQHEAAVKRADHLEELLEQHRRPTPSTK

Legend:
[1] = test system: GFP-14-3-3β and its binding proteins; assay: GFP-14-3-3β co-IP with LC-MS/MS label-free quantification, untreated versus PP1c-treated; parameters: species or system human; details: label-free quantification
Method: (§1) HeLa Kyoto cells expressing transiently transfected pEGFP(C1)-14-3-3β or pEGFP(C1) control plasmid, were incubated with 20 nM Calyculin A (# 9902 S, Cell Signaling Technology) for 12 min. Cells were washed twice on ice with cold PBS and after addition of 500 µL lysis buffer (100 mM NaCl, 10 mM Tris, 0.1% IGEPAL, 1 mM EDTA, 1 mM EGTA, 20 nM Calyculin A, 1x cOmplete Mini protease inhibitor cocktail (Sigma), 1 mM DTT, 1 mM MnCl2) cells were scraped from plates, lysed by 10 pushes through an injection needle (21 G, BD) and the insoluble fraction was pelleted by centrifugation (10 min, 10^4 rcf, 4 °C). Supernatants were then subjected to incubation with 1 µM recombinant phosphatase or buffer for 1 h at 30 °C. Next, we subjected samples to immunoprecipitation using α-GFP nanobodies covalently coupled to agarose beads (2 h, 4 °C, obtained from the EMBL PEPcore Core Facility). Beads were then washed three times with lysis buffer and samples were eluted in 1x LDS sample buffer (Thermo Fisher Scientific) by heating to 70 °C for 10 min.
(§2) The samples were then reduced with 25 mM dithiothreitol (10 min at 70 °C) and alkylated with 55 mM chloroacetamide (room temperature, 30 min, in the dark). Proteins were run on a precast 4–12% NuPAGE gel (ThermoFisher Scientific) for about 1 cm to concentrate the sample prior to in-gel tryptic digestion, which was performed according to the standard procedures. The peptides obtained were dried to completeness and resuspended in 12 µL of buffer A (0.1% FA), and 5 µL of sample were injected per MS measurement. The experiment was carried out in three independent replicates.
(§3) The samples were analyzed by LC-MS/MS on a Dionex Ultimate 3000 nano-HPLC coupled online to a Fusion Lumos Tribrid mass spectrometer (Thermo Fisher Scientific). Peptides were delivered to a trap column (75 µm × 2 cm, packed in-house with 5 µm C18 resin; Reprosil PUR AQ, Dr. Maisch) and washed using 0.1% FA at a flow rate of 5 µL/min for 10 min. Subsequently, peptides were transferred to an analytical column (75 µm × 45 cm, packed in-house with 3 µm C18 resin; Reprosil Gold) applying a flow rate of 300 nL/min and separated using a 60 min linear gradient from 4% to 32% LC solvent B (0.1% FA, 5% DMSO in ACN) in LC solvent A (0.1% FA in 5% DMSO). The eluate from the analytical column was sprayed via a stainless steel emitter (Thermo Fisher Scientific) at a source voltage of 2.1 kV into the mass spectrometer. The transfer capillary was heated to 275 °C. The Fusion Lumos was operated in positive ionization mode and data-dependent acquisition (DDA), automatically switching between MS1 and MS2 spectrum acquisition. Full scan MS1 spectra were recorded in the Orbitrap from 360 to 1300 m/z at a resolution of 60k (automatic gain control (AGC) target value of 4e5 charges, maximum injection time (maxIT) of 50 ms). Up to 20 peptide precursors were isolated (isolation window, 1.7 m/z; maximum injection time, 25 ms; and AGC value, 1e5), fragmented by high-energy collision-induced dissociation (HCD) using 30% normalized collision energy (NCE), and analyzed at a resolution of 15k in the Orbitrap. Precursor ions that were singly charged, unassigned, or with charge states >6+ were excluded. The dynamic exclusion duration of fragmented precursor ions was 20 s.
(§4) Peptide and protein identification and LFQ were performed using MaxQuant software (version 1.6.1.0)[64] by searching the data against all canonical protein sequences as annotated in the Swissprot reference database (human proteins only, 20193 entries, downloaded 22 March 2016, internally annotated with PFAM domains) using the embedded search engine Andromeda[65]. The MaxQuant search was performed using two variable modifications; oxidation of methionine and N-terminal protein acetylation. Carbamidomethylation on cysteines was specified as a fixed modification. Trypsin (Trypsin/P) was specified as the proteolytic enzyme with up to two allowed missed cleavage sites.

[2] = test system: GFP-14-3-3β; assay: GFP-14-3-3β co-IP with LC-MS/MS, untreated GFP-14-3-3β versus GFP control (14-3-3 interactome); format: binding, human; details: label-free quantification
Method: as §1, §2, §3, §4

Row | Molecule | Difference (log2), PP1 vs untreated ([1]; log2 difference, pairwise comparison PP1 vs untreated, 3 replicates each) | Difference (log2), untreated vs GFP ([2]; log2 difference, pairwise comparison untreated vs GFP, 3 replicates each) | Difference (log2), PP1 vs untreated ([1]; PP1 vs untreated) [log2] | Difference (log2), untreated vs GFP ([2]; untreated vs GFP) [log2]
1 | B1 | 2.782 | -1.082 |  | 
2 | B2 |  |  | 1.129 | -1.764
3 | B3 |  |  | 1.1435 | -0.4794
4 | B4 |  |  | 1.1838 | 2.229
5 | B5 |  |  | 1.183 | 0.2298
